Measurements from the DeepSol protein solubility set.

Assay: soluble on expression in E. coli; label from the status in PepcDB or PDB records
With “MSSRNNPARVAIVMGSKSDWATMQFAAEIFEILDVPHHVEVVSAHRTPDKLFSFAETAEENGYQVIIAGAGGAAHLPGMIAAKTLVPVLGVPVQSAALSGVDSLYSIVQMPRGIPVGTLAIGKAGAANAALLAAQILAQHDAELHQRIADWRKAQTDEVLENPDPRGTL” the “soluble on expression in E. coli” value was “not soluble”.
In the case of “MSEEVGAKRWYAVHTYSGYENKVKKNLEKRVESMNMTEQIFRVVIPEEEETQVKDGKAKTTVKKTFPGYVLVELIMTDESWYVVRNTPGVTGFVGSAGAGSKPNPLLPEEVRFILKQMGLKEKTIDVELEVGEQVRIKSGPFANQVGEVQEIETDKFKLTVLVDMFGRETPVEVEFDQIEKL”, the “soluble on expression in E. coli” value is reported as “not soluble”.
For “MNLDAPRVLVLNAAYEVLGLASIKRAVLLVLGGGAEMVSESGLYLNTPSTRIPVPSVVRLKRMVRRRPGRVPLNRRNVLRRDRYTCQYCGQKGGELTVDHVLPKSRGGKSTWDNLVAACRSCNLRKGDRTPEEAGMRLLRPPKPPRVPLFLLDLKEVPPDWRPFVEGLLGLEHHHHHH”, the “soluble on expression in E. coli” value was “not soluble”.
In the case of “MLAKSIPLGIYEKALPAGECWLERLKLAKALGFDFVEMSLDETDARLARLDWSPEQRLALVKAVAETGVRVPSMCLSAHRRFPLGSEDDAVRHQGLEIMRKAIQLAQDVGIRVIQLAGYDVYYQQANDETRRRFRDGLKQSVEMASRAQVTLAMEIMDYPLMNSISKALGYAHYLNNPWFQLYPDIGNLSAWDNDVQMELKAGSGHIVAVHVKDTKPGVFKNVPFGEGVVDFERCFETLKQTGYCGPYLIEMWSETSADPLAEVAKARDWVKARMARAGLMEAA”, the “soluble on expression in E. coli” value is reported as “not soluble”.
In the case of “MERDRISALKRSFEVEEVETPNSTPPRRVQTPLLRATVASSTQKFQDLGVKNSEPSARHVDSLSQRSPKASLRRVELSGPKAAEPVSRRTELSIDISSKQVENAGAIGPSRFGLKRAEVLGHKTPEPAPRRTEITIVKPQESAHRRMEPPASKVPEVPTAPATDAAPKRVEIQMPKPAEAPTAPSPAQTLENSEPAPVSQLQSRLEPKPQPPVAEATPRSQEATEAAPSCVGDMADTPRDAGLKQAPASRNEKAPVDFGYVGIDSILEQMRRKAMKQGFEFNIMVVGQSGLGKSTLINTLFKSKISRKSVQPTSEERIPKTIEIKSITHDIEEKGVRMKLTVIDTPGFGDHINNENCWQPIMKFINDQYEKYLQEEVNINRKKRIPDTRVHCCLYFIPATGHSLRPLDIEFMKRLSKVVNIVPVIAKADTLTLEERVHFKQRITADLLSNGIDVYPQKEFDEDSEDRLVNEKFREMIPFAVVGSDHEYQVNGKRILGRKTKWGTIEVENTTHCEFAYLRDLLIRTHMQNIKDITSSIHFEAYRVKRLNEGSSAMANGVEEKEPEAPEM”, the “soluble on expression in E. coli” value is reported as “not soluble”.
With “MAHHHHHHMSTRKEPPKVLKGAAYTECSPISDVSHHKASASKAFLENHYRGMLRDTRSGNTARPVGPRPREPCVDDFVLVKRIGKGAFGEVYLCYKKYDNDKQLYALKRMRKTDMIRKKQISHVRSEKDVMAEAASTNPWVVKLYLSFQDEQYLYMVMEYMPGGDMISWLCIKQRFDVESTRFYIAELCAAVASVHDMFFVHRDIKPDNILLDAKGHIKLTDFGLSKRFAKVGEELLDLEEGNDALCSSNSSANLSNTCGSTCQGPNSVPVVSPHNPHSPTANYNSLTPAGSHASAHPQARRIFESIVGSPGYIAPEILLRQRYGVNCDWWSVGVIMYEMLYGIPPFFSSDTSSTCHKITHWREYLTYPSDRGVPPEATDLLRRLMCDQRDRLDFQGVKEHPFFNDIDWERLRETPPAFVPELSDPLDTHYFPEVEDNTPQQHHQRPEERNAVREVDPRGVIFADYKFNLKR” the “soluble on expression in E. coli” value was “soluble”.
In the case of “MSRKTLVDTPITPQSSIGHILRAQFALQNQLPEDKPKTIGFNEAENMKLYELYSGRREEYHSTRPSGQRNEEVPMDTLAREWATEITSMGFAERTPAQIKQRIRDMRKFSRKHAHKLGITNMNAGQELERYAEFSWAEPKRRSRGPVPDWMSGLAEIMMSEQDTKADDADSASDIMEATYGPKAKRLKLQRTEMQLHQLQLHLDMKQRELKQEREKEEGNGNDEQEEREKRDVSPETLLIEKKLRLADAKLHTEHLKQQVSIP”, the “soluble on expression in E. coli” value is reported as “not soluble”.
With “MNTNDAKEYLARREIPQLFESLLNGLMCSKPEDPVEYLESCLQKVKELGGCDKVKWDTFVSQEKKTLPPLNGGQSRRSFLRNVMPENSNFPYRRYDRLPPIHQFSIESDTDLSETAELIEEYEVFDPTRPRPKIILVIGGPGSGKGTQSLKIAERYGFQYISVGELLRKKIHSTSSNRKWSLIAKIITTGELAPQETTITEIKQKLMQIPDEEGIVIDGFPRDVAQALSFEDQICTPDLVVFLACANQRLKERLL” the “soluble on expression in E. coli” value was “soluble”.
With “TVAYIAIGSNLASPLEQVNAALKALGDIPESHILTVSSFYRTPPLGPQDQPDYLNAAVALETSLAPEELLNHTQRIELQQGRVRKAERWGPRTLDLDIMLFGNEVINTERLTVPHYDMKNRGFMLWPLFEIAPELVFPDGEMLRQILHTRAFDKLNKW” the “soluble on expression in E. coli” value was “soluble”.
In the case of “MAHHHHHHMIICNNNVNHFWKNIKKNIRLDGRTFEDSRNVCINFLKDYGHVEISIGFTKVICKITSEIVKPHDRKLKEGILKINLDIDNFIEDNENSDNMSDECLEIKNIIDRVLKTSNIINFESLCIIPGKKVWCICINIMVIENDGNLTDACYLSAYCGLVHFKNHQVRVIKNGDIIIDKEEINYSPLSILNSPIVTTFAYYEEHDVCLIDPCLHEEEFMSSKISIALNKNGNLISLLKPGGIPLACSHIMESIEIAKKRILTILKILEDTLEEDKNIRSYLTKRNLHVKYSSAPVTIRYDNSFKLKPDISLERYTKNTLIFEDTIKKIEQYIQYNQVQECLNNMNVKLEENDQEEIETCTLKGEGNLNNPNFIDPMRNTNLLNPTDITIIKRQEFVDNHYDANNNKYNTQANKTFKKELIDFSNLLTQNHKKSNNLSNNQKDISEQHDNSQESSDDASTIRSDESSDIDFSVAINQNIKKKK”, the “soluble on expression in E. coli” value is reported as “not soluble”.
With “MSLDNSRTRPRVGHIQFLNCLPLYWGLARTGTLLDFELTKDTPEKLSEQLVRGDLDIGPVTLVEFLKNADDLVAFPDIAVGCDGPVMSCVIVSQVPLDRLDGARVALGSTSRTSVRLAQLLLSERFGVQPDYYTCPPDLSLMMQEADAAVLIGDAALRANMIDGPRYGLDVHDLGALWKEWTGLPFVFAVWAARRDYAEREPVITRKVHEAFLASRNLSLEEVEKVAEQAARWEAFDEDTLAKYFTTLDFRFGAPQLEAVTEFARRVGPTTGFPADVKVELLKPEGHHHHHH” the “soluble on expression in E. coli” value was “soluble”.
In the case of “GPGSMMMQRSQKMLLDPASFIERPPRNTLFNIVPQGHEYVVERLGRYHRTLDSGWWVVVPFIDKIRYNYNVKEQGIEIPNQSAITSDNVMVEIDGVLFLKIVDSCKASYNIENPVFNLINLAQTTMRSEIGRMSLDSLFRERASLNQSTVEVLRREANEWGIECKRYEIRDIVVSELVRRSMDLQAEAERKKRKLILESEGESTATINRANGMKIAQQCVADAEKYTAERQSEGAAAAIRVKAAAVSDNISIVSDAIEKAK”, the “soluble on expression in E. coli” value is reported as “not soluble”.
With “MGSDKIHHHHHHMSSCEIFPLISKLSAEGKRFAIVSIYKGNRLERTIVSDGRVLLGSLDRNIIEIALEALEKGKVIQKDLEDGKLVIEPIEPRPAIIVVGSGIIARFLAKLAIDMGYYVAVVGSGDVKEEDFSGVYAISNDLNLLEQMVSEDSIVIVANEGGKPYDIDALYIAMKKRARFVGLLASQKRAALMISLLVKRDIPLEEIKRRLHSPLGLDIGSKTAEEIALSILSEVVLDLRGGTGKRLQEVKNPYLLLDDALAGKIEDKCMFVPKSLSQQ” the “soluble on expression in E. coli” value was “not soluble”.
For “MGHHHHHHSHMANSMANSMGITTLDDPLGHMPERFDAFICYCPSDIQFVQEMIRQLEQTNYRLKLCVSDRDVLPGTCVWSIASELIEKRCRRMVVVVSDDYLQSKECDFQTKFALSLSPGAHQKRLIPIKYKAMKKEFPSILRFITVCDYTNPCTKSWFWTRLAKALSLP”, the “soluble on expression in E. coli” value was “soluble”.
In the case of “MGSDKIHHHHHHMSDTLRRKQAADHAMRHWVHQSRGPVPIGSDAHKQMFCNMLLDTHNPYKPAVIDWPALRPDALRRLTSLPIWDIAVQTEGRASVRVATFASTVRDPLLRAALELDAAEEARHKVVLSKLVQAYGIRLAPEPAYPAPKDAEWAWMVTGFSECIDSFFAFGLFRSAQRSGYFPPELVETFEPVIQEEGRHILFFANWFGWYWRNLSWWRRPWLFARVAAVWAYLIWERIGIARGIDADGVARDANFPANTAATVGNALNPRELIELCLVENARRMAGYDTRLLRPTIVPRLARFALRFIRK”, the “soluble on expression in E. coli” value is reported as “not soluble”.
For “MESGFTACISIITGVKSIYRWKNNIEENQEIMCFFKTAEDTSSHSLYRGVITSS”, the “soluble on expression in E. coli” value was “not soluble”.
For “MQQKDAVPDTAKKLKAPLTGLKTEQKVTERRPVAVVVNNHPKARPQSGLSKADIVIEALAEGQITRFLAIFQSQMPETVGPVRSAREYFVTLSNGFDSIFVHHGWSPGAKKQLESGAADYMNGLDFDGSLFWRADFSKPPHNSYTSYDYIKKAAEQKGYKLKQETNPLLFQTSDAKPANESYNVRVDYGTNNVTNLVEYNYDKKAEFYTRSSDGVITTDRETGKPVAMQNIFIVEASHHIIDQDGRRDIDLESGGKGLLFQHGNVIETDWKQVNGRIVPVKDGKWLPFVPGKTWINIVPDLDAASISKGEGVLEHHHHHH”, the “soluble on expression in E. coli” value was “soluble”.
In the case of “MSMPRYYEYRHVVGFEETNLVGNVYYVNYLRWQGRCREMFLYEHAPEILDELRADLKLFTLKAECEFFAELAPFDRLAVRMRLVELTQTQMELGFDYLRLGGDDLLVARGRQRIACMRGPNGRTEPVRVPAGLVRAFAPFRSATVGQ”, the “soluble on expression in E. coli” value is reported as “soluble”.
In the case of “YHHSVVVGNLSEAACESIGENGLLARVGSYYHDLGKTRRPHFFIENQMKMENPHDRISPQLSATIIISHPYDGAKMLKEYKMPKEIIDIAEQHHGTSLLKYFYHKAQQESDQEVEETSFRYPGPKAQSKVAAIVGIADSVEA”, the “soluble on expression in E. coli” value is reported as “soluble”.
In the case of “MENPPAEPFFLDASPGKRFCLYHSPAGDTPLNQVFIYLHPFAEEMNKSRRMAALQAKAFAAMGFGVLQIDLYGCGDSAGDFGEATWEIWKNDVEFAYQWLIQQGFTSVHFWGLRLGALLALDYAGKAETGSAKFILWQPVINGKSFLTQFLRLRLVNKLLSDDSDKAQNVHLREELRAGKSLEIAGYTLSPAMAAAIDELKLGQLVVGNSEIYWFEITPEAGRGLPPAGAAVVEAWNQSGVYPEVTLIPGLPFWATQEISECPALLAATAKLFAGIQP”, the “soluble on expression in E. coli” value is reported as “not soluble”.
For “MGHHHHHHSHMAGEKAQKKGKEKWKEKTWYTVESPPYLGSKEVTVALGEDPESMVNRIVEVPISDLTGNFKKSNEKALFRITGCEGTKCKTIFIGHYIGDDYIRRLVRRRKERIDIIEDVKTSDGSIITVKIVVVSDGKLTNTKKSEIRKALTSFIVSKGSQLSYADFVRYLIGDDSYNDMVEATKNIYPLRKIEIRKSELVSLSGMQEPQKNEPAPGGEAIAQN”, the “soluble on expression in E. coli” value was “not soluble”.
In the case of “KVKWTHEEDEQLRALVRQFGQQDWKFLASHFPNRTDQQCQYRWLRVL”, the “soluble on expression in E. coli” value is reported as “soluble”.
With “MQRLFVYGSLGPGRPNEHLMQKIGGQWQAASLRGRLLEKGWGAGMGFPGLAIDADGEEIHGHVFVSDRLAEHWPALDEFEGSEYRRVATRVTLADGAQVDAYVYALRD” the “soluble on expression in E. coli” value was “not soluble”.
In the case of “SAQKVEAKGGKGGNQWDDGSDHDAVTKIQVAVGGMGIQYIQFDYVKNGQTEQTPLRGIKGSTIPTDPFVINHPEEHLVSIEIWYKPDGLIQGLRFISNKKTSRFIGYDRGTRSFLQVQDKKIIGFHGSAGDNLNSLGAYFAPLTIPLTPAKPLPALGSDDGTAWDDGAYVGVKKVYVGQAQDGISAVKFVYDKSPEEVTGEEHGKSTLLGFEEFVLDYPSEYIIAVEGTYDKIFGSDGSVITMLRFKTNKQTSPPFGLEAGTAFELKEEGHKIVGFHGRADALLHKIGVHVRPVSN”, the “soluble on expression in E. coli” value is reported as “soluble”.
